These results are taken from patent US7109167.

No end group written: not given here. Oregon Green (5-isomer) = Oregon Green fluorescent label, 5-isomer

In experiment [1] the target is T1, NP-1/Fc (Neuropilin-1/Fc, R&D Systems).
T1 construct: Bought reagent; also called Npn-1
Briefly: fluorescence polarization competition against labeled BRU-326 on NP-1/Fc. In general terms: Fluorescence polarisation rises when a labelled molecule tumbles more slowly, as on binding a larger partner.

Experiment [2] shares this target. Briefly: competition of 125I-VEGF165 binding to plate-coated NP-1/Fc. On the procedure: An assay buffer consisting of Hank's Balanced Salt Solution (HBSS), 25 mM HEPES, and 0.1% BSA, pH 7.4 was used, and for all experiments, Assay volume per well was 75 µl. Plates (Nunc MaxiSorp white opaque Microtiter plate [C-bottom, 437796]) were coated by incubating the wells with 75 µl of a solution containing 3 µlg/mL NP-1/Fc in D-PBS/0.1% NaAzide overnight at 4° C. after covering with sealing tape (Dynex, VWR Cat. No. 62402-931). The next day all wells, even control wells lacking NP-1/Fc, were blocked 2 hrs with blocking buffer (1% BSA in D-PBS with 0.05% v/v Tween-20) then washed 4× with PBST (D-PBS/0.05% v/v Tween-20) before starting the assay. All points were derived from triplicate wells, and for each set of replicates in NP-1/Fc-coated wells, a companion set in the absence of the receptor was included. […] After addition of the appropriate solutions, microtiter plates were incubated at 4° C. for 2 hours. Following the incubation, plates were hand-washed 5 times with D-PBS containing 0.05% Tween-20 and 0.1% BSA. The plates were blotted dry and 25 µl deionized water and 100 µl scintillation fluid (Optiphase SuperMix, Wallac) were added to each well.

Experiment [3] has the same target. Kind of experiment: fluorescence polarization, labeled ligand (5-20 nM) titrated with NP-1/Fc, 37 °C. The protocol: FP values (mP) for each substrate was measured by titrating the ligand (5–20 nM) with receptor protein using a Jolley Research and Consulting FPM-1 fluorescence Polarization analyzer. In each of these experiments the observed polarization values were plotted against receptor concentration. The mP values for 100% binding of tracer labeled ligand to receptor protein was calculated using the software provided by the vendor.
Figure 3: FIG. 3: Binding of TKPPR (SEQ ID NO: 2) derivatives with NP-1/Fc by Fluorescence Polarization. The indicated Oregon Green-labeled derivatives were incubated with increasing concentrations of NP-1 and polarization was measured. […] Figure 4: FIG. 4: Binding of TKPPR (SEQ ID NO: 2) derivatives with KDR-Fc by FP.

T1 sequence (Q9QWJ9 22-855): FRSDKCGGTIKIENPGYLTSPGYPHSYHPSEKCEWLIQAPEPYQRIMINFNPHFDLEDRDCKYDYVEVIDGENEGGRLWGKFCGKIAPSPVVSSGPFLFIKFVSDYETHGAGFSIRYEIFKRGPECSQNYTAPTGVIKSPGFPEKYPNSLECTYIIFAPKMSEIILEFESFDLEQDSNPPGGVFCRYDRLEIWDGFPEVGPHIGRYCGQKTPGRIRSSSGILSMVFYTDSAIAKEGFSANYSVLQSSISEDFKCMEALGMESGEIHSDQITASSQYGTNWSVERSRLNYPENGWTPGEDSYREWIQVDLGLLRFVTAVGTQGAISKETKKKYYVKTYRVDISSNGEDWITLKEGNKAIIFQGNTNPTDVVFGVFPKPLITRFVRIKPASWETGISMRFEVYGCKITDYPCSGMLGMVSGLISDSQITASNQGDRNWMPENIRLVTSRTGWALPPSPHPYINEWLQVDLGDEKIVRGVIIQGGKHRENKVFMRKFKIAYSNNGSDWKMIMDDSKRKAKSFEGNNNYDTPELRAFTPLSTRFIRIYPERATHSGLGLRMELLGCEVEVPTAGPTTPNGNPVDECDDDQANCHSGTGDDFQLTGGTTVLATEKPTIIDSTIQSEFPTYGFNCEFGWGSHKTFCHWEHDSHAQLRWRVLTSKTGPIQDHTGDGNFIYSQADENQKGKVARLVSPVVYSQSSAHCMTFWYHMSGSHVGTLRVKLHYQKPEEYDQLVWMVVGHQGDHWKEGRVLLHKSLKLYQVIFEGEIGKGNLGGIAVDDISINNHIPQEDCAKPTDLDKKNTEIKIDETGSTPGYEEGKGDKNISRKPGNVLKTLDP

For TKPPR-OH (also called BRU-95; TKPPR-OH) [TKPPR (L-threonyl-L-lysyl-L-prolyl-L-prolyl-L-arginine), free monomeric peptide], the IC50 (in general, the concentration that gives 50% inhibition) in experiment [1] stood at 80000 nM; in experiment [2] it was 43000 nM.

B1: TKPPR tetramer BRU-326, OG-(TKPPR)4 (peptide)
peptide: TKPPR-OH
modifications: not fully specified (N-terminus); printed as OG-(TKPPR)4; also: tetramer: four TKPPR chains joined via branched tetra-acid scaffold
notes: free C-terminal Arg on each arm; also called tetrameric TKPPR
Molecule B1 registered a half-maximal inhibitory concentration (IC50) in experiment [2] of 130 nM. Besides, the Kd – broadly, the concentration at which binding is half-saturated – in experiment [3] lay within 25 to 50 nM.

B2: VEGF165 (ligand, UniProt P15692-4 27-191, looked up)
chain: APMAEGGGQNHHEVVKFMDVYQRSYCHPIETLVDIFQEYPDEIEYIFKPSCVPLMRCGGCCNDEGLECVPTEESNITMQIMRIKPHQGQHIGEMSFLQHNKCECRPKKDRARQENPCGPCSERRKHLFVQDPQTCKCSCKNTDSRCKARQLELNERTCRCDKPRR
modifications: 125I label on the radioligand form
notes: Labelled and unlabelled forms and the different suppliers are kept as one molecule; also called unlabeled VEGF165
On to B2, for which the half-inhibitory concentration (IC50) in experiment [1] amounted to 200 nM; in experiment [2], 0.5 nM.

B3: TKPPR dimer BRU-317, OG-(TKPPR)2 (peptide)
peptide: TKPPR
modifications: not fully specified (N-terminus); printed as OG-(TKPPR)2; also: dimer on branched scaffold with one Oregon Green label
B3: the half-maximal inhibitory concentration (IC50) in experiment [2] is 3000 nM.
The same measure, in the same setting: for {Oregon Green (5-isomer)}-GTKPPR-OH (also called OG-TKPPR; OG-TKPPR monomer) [BRU-239, Oregon Green (5-isomer)-GTKPPR-OH] the value was 30000 nM.
